{"source": "paper PMC7948954", "origin": "cited, not measured here", "key": {"SAP30": {"target": "SAP30 (UniProt O88574)", "sequence (O88574 130-220)": "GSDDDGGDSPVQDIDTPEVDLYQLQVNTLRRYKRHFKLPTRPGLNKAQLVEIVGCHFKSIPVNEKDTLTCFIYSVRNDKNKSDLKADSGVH"}, "[1]": {"target": "ANAC087 (Arabidopsis thaliana) (UniProt Q9FK44)", "sequence (Q9FK44 whole entry)": "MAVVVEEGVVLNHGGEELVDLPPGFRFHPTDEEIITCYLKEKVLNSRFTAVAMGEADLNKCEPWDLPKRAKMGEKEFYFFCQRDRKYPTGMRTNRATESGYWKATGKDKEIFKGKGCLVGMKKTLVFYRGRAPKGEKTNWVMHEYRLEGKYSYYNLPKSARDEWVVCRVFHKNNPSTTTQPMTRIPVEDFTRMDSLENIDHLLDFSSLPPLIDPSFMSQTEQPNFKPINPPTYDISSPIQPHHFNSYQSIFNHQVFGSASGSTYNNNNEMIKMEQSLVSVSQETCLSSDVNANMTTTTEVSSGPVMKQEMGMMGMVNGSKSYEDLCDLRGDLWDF"}, "[2]": {"target": "ANAC013 (Arabidopsis thaliana) (UniProt F4IED2)", "sequence (F4IED2 whole entry)": "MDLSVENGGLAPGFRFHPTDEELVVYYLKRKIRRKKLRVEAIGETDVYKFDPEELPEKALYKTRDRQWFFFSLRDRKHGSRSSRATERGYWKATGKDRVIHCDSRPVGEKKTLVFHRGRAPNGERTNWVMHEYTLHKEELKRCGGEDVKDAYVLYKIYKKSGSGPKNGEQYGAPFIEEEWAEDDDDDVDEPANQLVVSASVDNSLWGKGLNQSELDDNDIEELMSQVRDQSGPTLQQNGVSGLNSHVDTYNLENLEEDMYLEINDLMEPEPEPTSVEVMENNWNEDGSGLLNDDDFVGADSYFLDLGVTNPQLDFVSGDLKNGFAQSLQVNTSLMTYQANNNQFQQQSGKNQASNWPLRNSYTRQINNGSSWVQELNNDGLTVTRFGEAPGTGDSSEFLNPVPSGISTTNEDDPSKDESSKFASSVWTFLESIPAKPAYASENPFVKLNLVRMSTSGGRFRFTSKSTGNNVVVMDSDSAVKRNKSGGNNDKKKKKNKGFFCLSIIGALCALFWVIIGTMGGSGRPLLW"}, "[3]": {"target": "Col10 (Arabidopsis thaliana) (UniProt Q9LUA9)", "sequence (Q9LUA9 whole entry)": "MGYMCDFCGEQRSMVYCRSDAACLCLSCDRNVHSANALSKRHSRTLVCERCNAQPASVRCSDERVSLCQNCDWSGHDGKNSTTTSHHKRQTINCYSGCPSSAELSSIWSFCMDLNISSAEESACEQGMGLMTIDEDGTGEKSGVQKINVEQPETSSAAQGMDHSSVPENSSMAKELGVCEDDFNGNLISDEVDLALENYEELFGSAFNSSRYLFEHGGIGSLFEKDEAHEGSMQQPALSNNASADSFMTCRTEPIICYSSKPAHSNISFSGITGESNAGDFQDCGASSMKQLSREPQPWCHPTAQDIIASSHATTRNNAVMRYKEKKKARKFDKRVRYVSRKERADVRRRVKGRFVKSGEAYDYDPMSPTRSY"}, "[4]": {"target": "STO (Arabidopsis thaliana) (UniProt Q96288)", "sequence (Q96288 whole entry)": "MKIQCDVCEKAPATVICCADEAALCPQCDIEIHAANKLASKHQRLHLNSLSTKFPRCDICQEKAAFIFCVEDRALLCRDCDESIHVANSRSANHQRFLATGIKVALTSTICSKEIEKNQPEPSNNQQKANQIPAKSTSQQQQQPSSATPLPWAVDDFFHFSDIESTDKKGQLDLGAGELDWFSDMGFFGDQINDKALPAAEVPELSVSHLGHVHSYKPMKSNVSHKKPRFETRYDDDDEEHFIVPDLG"}, "[5]": {"target": "DREB2a (Arabidopsis thaliana) (UniProt O82132)", "sequence (O82132 whole entry)": "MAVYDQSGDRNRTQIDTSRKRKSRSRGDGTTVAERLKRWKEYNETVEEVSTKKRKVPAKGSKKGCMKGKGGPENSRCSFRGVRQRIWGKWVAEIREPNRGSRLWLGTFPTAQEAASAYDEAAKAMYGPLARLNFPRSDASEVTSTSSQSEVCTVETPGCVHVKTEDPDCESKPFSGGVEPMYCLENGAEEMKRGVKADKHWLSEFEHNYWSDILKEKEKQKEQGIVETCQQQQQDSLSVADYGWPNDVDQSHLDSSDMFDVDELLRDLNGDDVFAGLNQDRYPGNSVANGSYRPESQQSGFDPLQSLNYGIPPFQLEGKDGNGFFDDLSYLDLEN"}, "Mad1": {"target": "Mad1 (UniProt Q05195)", "sequence (Q05195 5-24)": "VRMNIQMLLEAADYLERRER"}, "Pf1": {"target": "Pf1 (UniProt Q96QT6)", "sequence (Q96QT6 202-241)": "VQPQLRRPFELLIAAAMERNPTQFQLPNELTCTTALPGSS"}}}
{"substance": "Sin3a PAH3 (from UniProt Q60520)", "values": [{"measurement": "Kd", "setting": "SAP30", "value": 9, "unit": "nM"}]}
{"substance": "RCD1 RST (from UniProt Q8RY59)", "values": [{"measurement": "Kd", "setting": "[1]", "value": 1800, "unit": "nM"}, {"measurement": "Kd", "setting": "[2]", "value": 9, "unit": "nM"}, {"measurement": "Kd", "setting": "[3]", "value": 418, "unit": "nM"}, {"measurement": "Kd", "setting": "[4]", "value": 90, "unit": "nM"}, {"measurement": "Kd", "setting": "[5]", "value": 16, "unit": "nM"}]}
{"substance": "Sin3 PAH2 (from UniProt Q60520)", "values": [{"measurement": "Kd", "setting": "Mad1", "value": 50, "unit": "nM"}, {"measurement": "Kd", "setting": "Pf1", "value": 2000, "unit": "nM"}]}
